The values below are quoted from earlier work in paper PMC4257090.

Like-named read-outs stand apart in the source and are kept apart here.

The target in series [1] is SecA (membrane-bound) (Escherichia coli) (UniProt P10408).
Series [2] concerns the target SecA (soluble) (Escherichia coli) (UniProt P10408).
Series [3] addresses SecA (membrane-bound) (Escherichia coli) (UniProt P10408). This is another data set of the same source.

For SecB (from UniProt P0AG86), the Kd is 30 nM in series [1], 1500 nM in series [2] and 10 nM in series [3].
